Earlier results, collected in publication PMC5529358.

Columns and labels:
[1] = target: insulin receptor isoform A isoform A (Homo sapiens) (UniProt P06213)
[2] = target: insulin receptor isoform B isoform B (Homo sapiens) (UniProt P06213)

insulin, sequence (P01308 90-110): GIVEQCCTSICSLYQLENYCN

Row | Kd [1] [nM] | Kd [2] [nM] | Substance
1 | 120 | – | IGF-1 (from UniProt P05019)
2 | – | 1.4 | insulin (from UniProt P01308)
